Consider 3 molecules from publication doi:10.1101/790931.

The target of assay [1] is FITC-labelled P. aeruginosa TolB[22-34] peptide (Pseudomonas aeruginosa). As to the kind of experiment: fluorescence polarisation.
The target in assay [2] is T1, C-terminal domain of E. coli TolA (E. coli).
T1 sequence (P19934 whole entry, looked up): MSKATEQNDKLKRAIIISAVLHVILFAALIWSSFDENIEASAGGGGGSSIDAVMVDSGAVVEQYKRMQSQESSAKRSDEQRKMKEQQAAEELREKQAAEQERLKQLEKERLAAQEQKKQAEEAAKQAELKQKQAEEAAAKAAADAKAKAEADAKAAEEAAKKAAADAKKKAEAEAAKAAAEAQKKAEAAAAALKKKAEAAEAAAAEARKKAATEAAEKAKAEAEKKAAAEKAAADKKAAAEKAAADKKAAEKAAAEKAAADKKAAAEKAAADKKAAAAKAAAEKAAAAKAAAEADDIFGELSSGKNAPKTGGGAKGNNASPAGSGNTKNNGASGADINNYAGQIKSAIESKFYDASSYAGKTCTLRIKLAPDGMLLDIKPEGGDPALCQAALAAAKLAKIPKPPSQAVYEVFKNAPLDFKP
Kind of assay: ITC.

No end group written: not given here.

P. aeruginosa TolA (residues 224-344) lacking its short C-terminal α-helix, sequence (P50600 224-344): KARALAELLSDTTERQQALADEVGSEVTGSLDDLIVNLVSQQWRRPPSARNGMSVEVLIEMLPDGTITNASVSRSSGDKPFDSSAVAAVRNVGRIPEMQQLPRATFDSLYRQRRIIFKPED
C-terminal domain of Pseudomonas aeruginosa TolA (TolA^224-347), sequence (P50600 224-347): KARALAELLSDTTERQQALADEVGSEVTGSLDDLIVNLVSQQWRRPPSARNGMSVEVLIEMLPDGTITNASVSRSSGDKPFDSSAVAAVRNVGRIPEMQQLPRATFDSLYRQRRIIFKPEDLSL

In the case of “C-terminal domain of Pseudomonas aeruginosa TolA (TolA^224-347) (from UniProt P50600 224-347) (domain or fragment)”, in assay [1], the Kd worked out at 250 µM, the koff was 0.9 s⁻¹ and the kon is 7400 M⁻¹ s⁻¹.

In assay [1], “P. aeruginosa TolA (residues 224-344) lacking its short C-terminal α-helix (from UniProt P50600 224-344) (domain or fragment)” displayed a Kd of 86 µM, a koff of 1.4 s⁻¹ and a kon of 23800 M⁻¹ s⁻¹.

As for EVRIVIDSGVDS-NH2 [E. coli TolB peptide (residues 22-33)], in assay [2], the Kd is 44 µM, the dH was -3.79 kcal/mol and the stoichiometry N stood at 0.56.
